From publication PMC6765261 (Proceedings of the National Academy of Sciences of the …, 2019) come the findings set out here.

This data set deals with the molecule itself. Kind of data set: cryo-EM structure.

B1: CCT2 subunit of yeast TRiC/CCT (natural protein, Saccharomyces cerevisiae, UniProt P39076 1-527, looked up)
chain: MSVQIFGDQVTEERAENARLSAFVGAIAVGDLVKSTLGPKGMDKLLQSASSNTCMVTNDGATILKSIPLDNPAAKVLVNISKVQDDEVGDGTTSVTVLSAELLREAEKLIDQSKIHPQTIIEGYRLASAAALDALTKAAVDNSHDKTMFREDLIHIAKTTLSSKILSQDKDHFAELATNAILRLKGSTNLEHIQIIKILGGKLSDSFLDEGFILAKKFGNNQPKRIENAKILIANTTLDTDKVKIFGTKFKVDSTAKLAQLEKAEREKMKNKIAKISKFGINTFINRQLIYDYPEQLFTDLGINSIEHADFEGVERLALVTGGEVVSTFDEPSKCKLGECDVIEEIMLGEQPFLKFSGCKAGEACTIVLRGATDQTLDEAERSLHDALSVLSQTTKETRTVLGGGCAEMVMSKAVDTEAQNIDGKKSLAVEAFARALRQLPTILADNAGFDSSELVSKLRSSIYNGISTSGLDLNNGTIADMRQLGIVESYKLKRAVVSSASEAAEVLLRVDNIIRARPRTANRQHM
B1: the binding result was “binds”.

B2: CCT6 subunit of yeast TRiC/CCT (natural protein)
chain: not shown
On to B2, for which the binding result is “binds”.
